The results in this text go back to PMC5669276.

The target of assay [1] is Bluetongue virus (BTV) membrane penetration outer-layer protein VP5, as trimer on the virion (bluetongue virus (BTV)). Nature of the assay: […].
For assay [2] the target is unchanged. Put plainly: cryo-EM structure.
The target in assay [3] is Bluetongue virus (BTV) middle-layer core protein VP7, as trimer on the virion (bluetongue virus (BTV)). Nature of the assay: cryo-EM structure.
In assay [4] the target is Bluetongue virus (BTV) receptor-binding outer-layer protein VP2, as trimer on the virion (bluetongue virus (BTV)). Put plainly: cryo-EM structure.

With “Bluetongue virus (BTV) membrane penetration outer-layer protein VP5, as trimer on the virion (natural protein)”, the stoichiometry N in assay [1] and in assay [2] was 3 in each case.
“Bluetongue virus (BTV) middle-layer core protein VP7, as trimer on the virion (natural protein)”: the stoichiometry N in assay [3] amounted to 3.
As for “Bluetongue virus (BTV) receptor-binding outer-layer protein VP2, as trimer on the virion (natural protein)”, the stoichiometry N in assay [4] came to 3.

One may read the stoichiometry N as a count of units in the complex or per binding partner.
